Source: PMC5039622, “Characterization of aspartyl aminopeptidase from Toxoplasma gondii” (Scientific Reports, 2016)

Columns and labels:
[1] = target: T1, rTgAAP (TgAAP, aspartyl aminopeptidase) (Toxoplasma gondii, UniProt A0A7J6KF82); assay: inhibition of H-Glu-MCA hydrolysis; type: biochemical; conditions: 1 h pre-incubation at 37 °C; substrate H-Glu-MCA
T1 construct: gene TGRH88_002740; full-length CDS 1521 bp, ~56 kDa (55897 Da predicted in ToxoDB), N-terminal GST tag kept (~80 kDa), E. coli BL21, pCold III; mainly dodecamer, also trimer and monomer on native PAGE
T1 sequence (A0A7J6KF82 1-508): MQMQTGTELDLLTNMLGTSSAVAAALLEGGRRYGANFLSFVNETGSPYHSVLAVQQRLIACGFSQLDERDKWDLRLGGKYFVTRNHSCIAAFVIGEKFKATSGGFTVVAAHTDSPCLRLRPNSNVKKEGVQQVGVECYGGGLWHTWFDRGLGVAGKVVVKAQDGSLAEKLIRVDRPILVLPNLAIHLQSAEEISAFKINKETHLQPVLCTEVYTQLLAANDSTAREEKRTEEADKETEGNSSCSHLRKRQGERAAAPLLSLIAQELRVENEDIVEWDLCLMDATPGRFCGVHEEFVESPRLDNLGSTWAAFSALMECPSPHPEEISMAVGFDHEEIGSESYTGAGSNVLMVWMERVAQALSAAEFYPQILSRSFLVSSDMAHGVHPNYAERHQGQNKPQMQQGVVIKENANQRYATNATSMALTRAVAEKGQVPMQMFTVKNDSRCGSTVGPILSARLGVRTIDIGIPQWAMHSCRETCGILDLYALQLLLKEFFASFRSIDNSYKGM

[2] = substrate: Cc1cc(=O)oc2cc(NC(=O)[C@@H](N)CC(N)=O)ccc12; assay: fluorogenic MCA release, initial rates; type: biochemical, Toxoplasma gondii; conditions: 37 °C, enzyme 0.3 μM, metal not stated for the kinetics
Description: (§1) fluorogenic MCA release, initial rates on rTgAAP (TgAAP, aspartyl aminopeptidase)

[3] = substrate: Cc1cc(=O)oc2cc(NC(=O)[C@@H](N)CCC(=O)O)ccc12; assay: fluorogenic MCA release, initial rates; type: biochemical, Toxoplasma gondii; conditions: 37 °C, enzyme 0.3 μM, metal not stated for the kinetics
Description: as §1

[4] = substrate: Cc1cc(=O)oc2cc(NC(=O)[C@@H](N)CO)ccc12; assay: fluorogenic MCA release, initial rates; type: biochemical, Toxoplasma gondii; conditions: 37 °C, enzyme 0.3 μM, metal not stated for the kinetics
Description: as §1

[5] = substrate: Cc1cc(=O)oc2cc(NC(=O)[C@@H](N)Cc3c[nH]cn3)ccc12; assay: fluorogenic MCA release, initial rates; type: biochemical, Toxoplasma gondii; conditions: 37 °C, enzyme 0.3 μM, metal not stated for the kinetics
Description: as §1

[6] = substrate: Cc1cc(=O)oc2cc(NC(=O)[C@@H]3CCCN3)ccc12; assay: fluorogenic MCA release, initial rates; type: biochemical, Toxoplasma gondii; conditions: 37 °C, enzyme 0.3 μM, metal not stated for the kinetics, printed kcat/Km 0.28 disagrees tenfold with printed kcat and Km
Description: as §1

[7] = substrate: Cc1cc(=O)oc2cc(NC(=O)[C@@H](N)CC(=O)O)ccc12; assay: fluorogenic MCA release, initial rates; type: biochemical, Toxoplasma gondii; conditions: 37 °C, enzyme 0.3 μM, metal not stated for the kinetics
Description: as §1

| Molecule | % inhibition at 1 mM [1] [%] | Km [2] [µM] | kcat [2] [s⁻¹] | kcat/Km [2] [M⁻¹ s⁻¹] | Km [3] [µM] | kcat [3] [s⁻¹] | kcat/Km [3] [M⁻¹ s⁻¹] | Km [4] [µM] | kcat [4] [s⁻¹] | kcat/Km [4] [M⁻¹ s⁻¹] | Km [5] [µM] | kcat [5] [s⁻¹] | kcat/Km [5] [M⁻¹ s⁻¹] | Km [6] [µM] | Km [7] [µM] | kcat [7] [s⁻¹] | kcat/Km [7] [M⁻¹ s⁻¹] |
| --- | --- | --- | --- | --- | --- | --- | --- | --- | --- | --- | --- | --- | --- | --- | --- | --- | --- |
| Cl.Oc1ccc(CCNc2c3ccccc3nc3ccccc23)cc1O [CID 23724194] | > 50 |  |  |  |  |  |  |  |  |  |  |  |  |  |  |  |  |
| rTgAAP (TgAAP, aspartyl aminopeptidase) (Toxoplasma gondii) (protein, full-length CDS 1521 bp, ~56 kDa (55897 Da predicted in ToxoDB), N-terminal GST tag kept (~80 kDa), E. coli BL21, pCold III; mainly dodecamer, also trimer and monomer on native PAGE) MQMQTGTELDLLTNMLGTSSAVAAALLEGGRRYGANFLSFVNETGSPYHSVLAVQQRLIACGFSQLDERDKWDLRLGGKYFVTRNHSCIAAFVIGEKFKATSGGFTVVAAHTDSPCLRLRPNSNVKKEGVQQVGVECYGGGLWHTWFDRGLGVAGKVVVKAQDGSLAEKLIRVDRPILVLPNLAIHLQSAEEISAFKINKETHLQPVLCTEVYTQLLAANDSTAREEKRTEEADKETEGNSSCSHLRKRQGERAAAPLLSLIAQELRVENEDIVEWDLCLMDATPGRFCGVHEEFVESPRLDNLGSTWAAFSALMECPSPHPEEISMAVGFDHEEIGSESYTGAGSNVLMVWMERVAQALSAAEFYPQILSRSFLVSSDMAHGVHPNYAERHQGQNKPQMQQGVVIKENANQRYATNATSMALTRAVAEKGQVPMQMFTVKNDSRCGSTVGPILSARLGVRTIDIGIPQWAMHSCRETCGILDLYALQLLLKEFFASFRSIDNSYKGM |  | 24.32 ± 0.26 | 0.484 ± 0.0126 | 19900 | 7.35 ± 0.73 | 1.4 ± 0.306 | 190000 | 92.87 ± 3.38 | 0.123 ± 0.0086 | 1330 | 88.70 ± 2.53 | 0.208 ± 0.0043 | 2350 | 98.55 ± 1.96 | 12.84 ± 0.21 | 1.1 ± 0.0648 | 85700 |
